Laboratory results as given in patent US20120121688A1, “PREVENTATIVE OR THERAPEUTIC AGENT AND METHOD FOR IMMUNE DISEASE” (Rinken, priority 2006, published 2012).

How the values were obtained:
B220+ cells (B cells) = assay: Cytokine production by whole spleen cells co-cultured with B220+ cells (B cells) from spleen of administered mice (ELISA); type: cell-based, BDF1 mice; conditions: B220+ cells from mice given 2 μg α-GalCer/mouse i.p., added to whole spleen cells; FIG. 1
Experimental: Aqueous α-GalCer or αGC liposome (International Publication WO2005/120574) at 2 μg α-GalCer/mouse was intraperitoneally administered to BDF1 mice, and after 24 hours, spleen was removed. The spleen was homogenized with a slide glass to prepare a cell suspension. Subsequently, anti-CD11c antibody magnetic beads (Miltenyi) were added thereto and CD11c^+ cells (DC) were prepared using a magnet. B220^+ cells (B cells) were prepared using anti-B220 mAb magnetic beads (Miltenyi) from the remaining cells which had not been bound to the magnet. Then, 2.5×10^5 whole spleen cells from the normal BDF1 mouse and 1×10^5 DC or 3×10^5 B cells derived from the spleen in the BDF1 mouse administered with aqueous α-GalCer or αGC liposome, suspended in 200 μL of culture medium were added in one well in a 96-well U bottom culture plate, and cultured in an incubator containing 5% CO2 at 37° C. Levels of cytokines, IFN-γ, IL-4 and IL-10 in culture supernatants after 24, 48 and 72 hours were measured by ELISA (FIG. 1).

[1] = system: natural type Cryj1-specific IgE antibody; assay: Inhibitory capacity of recCryj1/2 protein for in vivo IgE antibody production; parameters: species or system BDF1 mice; conditions: FIG. 10
Experimental: BDF1 mice (female, 8 weeks of age, Charles River) were intraperitoneally immunized with 5 μg of purified Cryj1 (natural type Cryj1, Hayashibara Biochemical Laboratories Inc.) derived from the cedar pollen mixed with 2 mg of aluminium hydroxide gel adjuvant (RIKEN) at the start of the experiment (0day) and on the 14th day. On the 50th day, the boost immunization with 1 μg of natural type Cryj1 was given. Meanwhile, the blood samples were collected from the orbital venous plexus on the 14th, 29th and 57th days, and the levels of the natural type Cryj1-specific IgE antibody in serum were measured. Subsequently, on the 99th day, the levels of the natural type Cryj1-specific IgE antibody were measured in all mice, and the mice were divided into three group (5 mice in one group) so that average values of antibody titers were equal among the groups. On the 106th, 113th and 120th days, the recCryj1/2 protein (0.2 μg), the recCryj1/2 protein (2 μg), or saline was administered three times, and further the boost immunization with 1 μg of natural type Cryj1 was given on the 133rd day. The blood samples were collected from the orbital venous plexus on the 140th and 160th days, and the levels of the natural type Cryj1-specific IgE antibody in serum were measured.

[2] = system: natural type Cryj1-specific and recCryj1/2-specific antibody titers; assay: In vivo antibody production by immunization with recCryj1/2 protein or natural type Cryj1; parameters: species or system BALB/c×DBA/2F1 (BDF1) mice
Experimental: BALB/c×DBA/2F1 (BDF1) mice (female, 8 weeks of age, five mice in one group, Charles River) were intraperitoneally immunized with 10 μg of purified Cryj1 (natural type Cryj1, Hayashibara Biochemical Laboratories Inc.) derived from the cedar pollen, or 5 μg or 10 μg of the recCryj1/2 protein mixed with 2 mg of aluminium hydroxide gel adjuvant (RIKEN) at the start of the experiment (0day) and on the 14th day. The boost immunization with 1 μg of natural type Cryj1 or 5 μg or 10 μg of the recCryj1/2 protein was given to each mouse on the 41st day. Furthermore, on the 81st day, the boost immunization with 1 μg of natural type Cryj1 mixed with 2 mg of aluminium hydroxide gel was given to all mice. Blood samples were collected from orbital venous plexus on the 13th, 28th, 55th, 76th and 95th days, and levels of natural type Cryj1-specific antibody titers and recCryj1/2-specific IgE antibody titers were measured. […] The recCryj1/2-specific IgE antibody titers on the 76th day were increased in mice immunized with the recCryj1/2 fusion protein (FIG. 8). Meanwhile, on the 28th and 55th day, natural type Cryj1-specific IgG1 and IgG2a antibody titers were increased in both mice immunized with natural type Cryj1 and recCryj1/2 (FIG. 9).

Molecule | IFN-γ production (B220+ cells (B cells)) | IL-4 production (B220+ cells (B cells)) | IL-10 production (B220+ cells (B cells)) | natural type Cryj1-specific IgE antibody titers versus saline group ([1]; 127th day, 0.2 or 2 μg administered on days 106, 113, 120 to Cryj1-sensitized mice) | natural type Cryj1-specific IgE antibody titers after the boost immunization (133rd day) ([1]; 160th day, increased in saline group) | natural type Cryj1-specific IgG1 antibody titers ([2]; 28th and 55th day, FIG. 9) | natural type Cryj1-specific IgG2a antibody titers ([2]; 28th and 55th day, FIG. 9) | recCryj1/2-specific IgE antibody titers ([2]; 76th day, FIG. 8) | increase of the natural type Cryj1-specific IgE antibody after immunization with adjuvant and natural type Cryj1 on the 81st day ([2]; 94th day, mice earlier immunized with 5 or 10 μg, FIG. 7) | natural type Cryj1-specific IgE antibody titers ([2]; days 28, 55 and 76, i.p. immunization with aluminium hydroxide gel days 0 and 14, boost day 41, FIG. 7)
CCCCCCCCCCCCCCCCCCCCCCCCCC(=O)N[C@@H](CO[C@H]1O[C@H](CO)[C@H](O)[C@H](O)[C@H]1O)[C@H](O)[C@H](O)CCCCCCCCCCCCCC [aqueous α-GalCer, α-galactosylceramide] | not detected | not detected | not detected | – | – | – | – | – | – | –
recCryj1/2 protein: His-tagged recombinant fusion protein of Cryj1 mature protein and Cryj2 mature protein, SEQ ID NO:9 (protein, His tag) MAHHHHHHSAALEVLFQGPSDNPIDSCWRGDSNWAQNRMKLADCAVGFGSSTMGGKGGDLYTVTNSDDDPVNPAPGTLRYGATRDRPLWIIFSGNMNIKLKMPMYIAGYKTFDGRGAQVYIGNGGPCVFIKRVSNVIIHGLHLYGCSTSVLGNVLINESFGVEPVHPQDGDALTLRTATNIWIDHNSFSNSSDGLVDVTLSSTGVTISNNLFFNHHKVMLLGHDDAYSDDKSMKVTVAFNQFGPNCGQRMPRARYGLVHVANNNYDPWTIYAIGGSSNPTILSEGNSFTAPNESYKKQVTIRIGCKTSSSCSNWVWQSTQDVFYNGAYFVSSGKYEGGNIYTKKEAFNVENGNATPQLTKNAGVLTCSLSKRCRKVEHSRHDAINIFNVEKYGAVGDGKHDCTEAFSTAWQAACKKPSAMLLVPGNKKFVVNNLFFNGPCQPHFTFKVDGIIAAYQNPASWKNNRIWLQFAKLTGFTLMGKGVIDGQGKQWWAGQCKWVNGREICNDRDRPTAIKFDFSTGLIIQGLKLMNSPEFHLVFGNCEGVKIIGISITAPRDSPNTDGIDIFASKNFHLQKNTIGTGDDCVAIGTGSSNIVIEDLICGPGHGISIGSLGRENSRAEVSYVHVNGAKFIDTQNGLRIKTWQGGSGMASHIIYENVEMINSENPILINQFYCTSASACQNQRSAVQIQDVTYKNIRGTSATAAAIQLKCSDSMPCKDIKLSDISLKLTSGKIASCLNDNANGYFSGHVIPACKNLSPS | – | – | – | higher | decreased | increased | increased | increased | scarcely observed | not increased at all
